The target in one experiment is HLA-A*01:01. Description: IEDB peptide-MHC binding, purified MHC/direct/fluorescence; filed as Kd, often an IC50 or EC50 that approximates it; ≥ and ≤ were set here for values at or beyond the usual limits of such assays.
In experiment [1] the target is HLA-A*02:01. Described as above.
The target in experiment [2] is HLA-A*03:01. The experiment is described as above.
A further experiment deals with HLA-A*11:01. Described as above. Conditions: source organism: Escherichia coli O157:H7.
Another experiment deals with HLA-A*26:01. Described as above.
The target of a further experiment is HLA-A*31:01. The experiment is described as above. Conditions: source organism: Escherichia coli O157:H7.
The target in the next experiment is HLA-A*69:01. The description is as above.
The target of the next experiment is HLA-B*07:02. The description is as above.
For a further experiment, the target named is HLA-B*08:01. The description is as above. The settings on record: source organism: Escherichia coli O157:H7.
A further experiment addresses HLA-B*15:01. The description is as above.
Another experiment concerns the target HLA-B*27:05. The experiment is described as above. The settings on record: source organism: Escherichia coli O157:H7.
A further experiment has as its target HLA-B*35:01. The description is as above.
A further experiment has as its target HLA-B*40:01. Described as above. Conditions: source organism: Escherichia coli O157:H7.
In a further experiment the target is HLA-B*44:02. Described as above. The settings on record: source organism: Escherichia coli O157:H7.
Experiment [3] has as its target HLA-B*58:01. The experiment is described as above. Conditions: source organism: Escherichia coli O157:H7.
Experiment [4] deals with HLA-A*02:01. Description: IEDB peptide-MHC binding, purified MHC/competitive/radioactivity; ≥ and ≤ were set here for values at or beyond the usual limits of such assays.
The next experiment has as its target HLA-A*24:03. Description: IEDB peptide-MHC binding, purified MHC/direct/fluorescence; filed as Kd, often an IC50 or EC50 that approximates it; ≥ and ≤ were set here for values at or beyond the usual limits of such assays. Conditions: source organism: Escherichia coli O157:H7.
Experiment [5] has as its target HLA-A*03:01. Description: IEDB peptide-MHC binding, purified MHC/competitive/fluorescence; filed as Kd, often an IC50 or EC50 that approximates it; ≥ and ≤ were set here for values at or beyond the usual limits of such assays. The settings on record: source organism: Yersinia pestis Nepal516.
The target of experiment [6] is HLA-B*58:01. Described as above. Conditions: source organism: Yersinia pestis Nepal516.
The target of a further experiment is HLA-B*53:01. Description: IEDB peptide-MHC binding, purified MHC/competitive/fluorescence; ≥ and ≤ were set here for values at or beyond the usual limits of such assays. The settings on record: source organism: Human herpesvirus 4 type 2.
Another experiment concerns the target HLA-A*02:03. Description: IEDB peptide-MHC binding, purified MHC/direct/fluorescence; filed as Kd, often an IC50 or EC50 that approximates it; ≥ and ≤ were set here for values at or beyond the usual limits of such assays. Conditions: source organism: Encephalitozoon cuniculi GB-M1.
A further experiment concerns the target HLA-A*02:11. The experiment is described as above. Conditions: source organism: Encephalitozoon cuniculi GB-M1.
In a further experiment the target is HLA-A*02:12. The experiment is described as above. Conditions: source organism: Encephalitozoon cuniculi GB-M1.
The target in a further experiment is HLA-A*02:16. Described as above. Conditions: source organism: Encephalitozoon cuniculi GB-M1.
The next experiment concerns the target HLA-A*02:19. The experiment is described as above. The settings on record: source organism: Encephalitozoon cuniculi GB-M1.
The target of another experiment is HLA-A*68:02. Described as above. The settings on record: source organism: Encephalitozoon cuniculi GB-M1.
A further experiment concerns the target HLA-B*18:01. The experiment is described as above. Conditions: source organism: Encephalitozoon cuniculi GB-M1.
For the next experiment, the target named is HLA-B*27:03. Described as above. The settings on record: source organism: Encephalitozoon cuniculi GB-M1.
The target in a further experiment is HLA-B*39:01. Described as above. Conditions: source organism: Encephalitozoon cuniculi GB-M1.
Another experiment deals with HLA-B*46:01. The experiment is described as above. Conditions: source organism: Encephalitozoon cuniculi GB-M1.
Experiment [7] deals with HLA-B*51:01. Described as above. Conditions: source organism: Encephalitozoon cuniculi GB-M1.
A further experiment addresses HLA-B*57:01. The experiment is described as above. The settings on record: source organism: Encephalitozoon cuniculi GB-M1.
Experiment [8] addresses HLA-B*51:01. Description: IEDB peptide-MHC binding, purified MHC/competitive/fluorescence; ≥ and ≤ were set here for values at or beyond the usual limits of such assays. The settings on record: source organism: Mus musculus.
A further experiment concerns the target HLA-C*03:03. Description: IEDB peptide-MHC binding, purified MHC/direct/fluorescence; filed as Kd, often an IC50 or EC50 that approximates it; ≥ and ≤ were set here for values at or beyond the usual limits of such assays. Conditions: source organism: Mus musculus.
[9] abbreviates: source organism: Escherichia coli O6.
[10] abbreviates: source organism: Escherichia coli O157:H7.
[11] abbreviates: source organism: Hepatitis B virus.
Setting [12] is: source organism: Encephalitozoon cuniculi GB-M1.

pIC50, pKd: −log10 of the molar value.

Broadly, the pKd is the negative decadic logarithm of the Kd, by convention in mol/L. Low values mean a large Kd, high ones a small Kd. Broadly, the pIC50 is the negative decadic logarithm of the IC50, by convention in mol/L.

As for AHGWSTFYL, the pKd is 5.50 with HLA-A*01:01 (setting [9]); at most 4.70 with HLA-A*02:01 [1] (setting [10]); at most 4.70 with HLA-A*03:01 [2] (setting [10]); at most 4.70 with HLA-A*11:01; at most 4.70 in the experiment with HLA-A*26:01 (setting [10]); at most 4.70 in the experiment with HLA-A*31:01. Further, the negative-log Kd (pKd) in the experiment with HLA-A*69:01 (setting [9]) is 5.81; with HLA-B*07:02 (setting [10]) it was at most 4.70; in the experiment with HLA-B*08:01, at most 4.70; in the experiment with HLA-B*15:01 (setting [10]), at most 4.70; with HLA-B*27:05 it was at most 4.70; with HLA-B*35:01 (setting [9]), 5.68. The pKd with HLA-B*40:01, in the experiment with HLA-B*44:02 and with HLA-B*58:01 [3] was at most 4.70 throughout.
In turn, FPFWGCFVS had a negative-log Kd (pKd) in the experiment with HLA-B*35:01 (source organism: Rickettsia prowazekii) of 8.70.
For ILSTLPETTV, the pIC50 in the experiment with HLA-A*02:01 [4] (setting [11]) is 6.63.
In the case of LPEFERRTL, the pKd in the experiment with HLA-A*01:01 (setting [10]), in the experiment with HLA-A*02:01 [1] (setting [10]), with HLA-A*03:01 [2] (setting [10]), with HLA-A*11:01, with HLA-A*24:03 and with HLA-A*26:01 (setting [10]) was at most 4.70 in each case. Besides, the negative logarithm of the Kd (pKd) in the experiment with HLA-A*31:01 was at most 4.70; with HLA-A*69:01 (setting [10]), at most 4.70; with HLA-B*07:02 (setting [10]), 7.43; in the experiment with HLA-B*08:01, 5.37; in the experiment with HLA-B*15:01 (setting [10]), at most 4.70; with HLA-B*27:05 it was at most 4.70. Further, the negative-log Kd (pKd) with HLA-B*35:01 (setting [10]) is 7.79; in the experiment with HLA-B*40:01 it was at most 4.70; in the experiment with HLA-B*44:02, at most 4.70; with HLA-B*58:01 [3], at most 4.70.
Take MTTSMTMSY: the pKd in the experiment with HLA-A*03:01 [5] is 6.52; with HLA-B*58:01 [6], 7.32.
As to QAYAAPQLF, the pIC50 with HLA-B*53:01 was 7.15.
For the sequence QLLWFHISCL, in the experiment with HLA-A*02:01 [4] (setting [11]), the negative-log IC50 (pIC50) was 6.41.
Regarding RVASPTSGV, in the experiment with HLA-A*02:01 [4] (source organism: Homo sapiens), the pIC50 was 6.14.
SPLPITLKY: the negative logarithm of the Kd (pKd) in the experiment with HLA-A*02:01 [1] (setting [12]), in the experiment with HLA-A*02:03, with HLA-A*02:11, with HLA-A*02:12, with HLA-A*02:16 and in the experiment with HLA-A*02:19 was at most 4.70 each time. The negative logarithm of the Kd (pKd) with HLA-A*03:01 [2] (setting [12]) was at most 4.70; in the experiment with HLA-A*26:01 (setting [12]), at most 4.70; in the experiment with HLA-A*68:02, at most 4.70; with HLA-B*07:02 (setting [12]) it was 5.35; with HLA-B*15:01 (setting [12]) it was at most 4.70; in the experiment with HLA-B*18:01, at most 4.70. Further, the pKd in the experiment with HLA-B*27:03 was at most 4.70; with HLA-B*35:01 (setting [12]) it was 8.70; with HLA-B*39:01, at most 4.70; in the experiment with HLA-B*46:01, at most 4.70; in the experiment with HLA-B*51:01 [7] it was at most 4.70; in the experiment with HLA-B*57:01, at most 4.70.
For VALFSSCPV, the negative logarithm of the IC50 (pIC50) with HLA-B*51:01 [8] was 5.73. In the experiment with HLA-C*03:03, this sequence had a pKd of 8.70.

The values above are taken from the Immune Epitope Database (IEDB).
